The assay addresses HA-GSGS-tagged rat mGluR2 with TAG at Ala548 (CRD linker sensor) (rat) (UniProt P31421).

Sequence of Heterotrimeric Gi1 (P63096 whole entry, looked up, one chain of several): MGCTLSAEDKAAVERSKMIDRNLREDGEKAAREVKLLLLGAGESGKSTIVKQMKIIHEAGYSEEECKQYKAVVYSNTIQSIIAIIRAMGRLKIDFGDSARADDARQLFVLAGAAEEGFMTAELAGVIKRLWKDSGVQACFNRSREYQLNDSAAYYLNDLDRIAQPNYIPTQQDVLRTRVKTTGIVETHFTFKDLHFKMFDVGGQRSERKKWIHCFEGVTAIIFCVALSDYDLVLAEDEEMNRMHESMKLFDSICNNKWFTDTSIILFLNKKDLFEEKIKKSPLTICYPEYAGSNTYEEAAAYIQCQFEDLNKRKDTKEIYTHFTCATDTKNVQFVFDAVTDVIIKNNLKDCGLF

The substance “Heterotrimeric Gi1 (from UniProt P63096 1-354) (complex)” yielded a smFRET of the CRD sensor with 10 mM glutamate and 4–5 µM Gi1 heterotrimer: occupancy of the high-FRET state (E ~ 0.85) of 20%.
